Results as given in publication PMC3436905.
Where two headings read alike, the source gives them in different places.

Assays:
[1] = target: surface vimentin (human (endogenous in HeLa and HT-29)) (UniProt P08670); assay: flow cytometry on cells
[2] = target: surface vimentin (human (endogenous in HeLa and HT-29)) (UniProt P08670); assay: flow cytometry on cells; remark: listed apart in the source

Sequence of UniProt P08670 (P08670 whole entry): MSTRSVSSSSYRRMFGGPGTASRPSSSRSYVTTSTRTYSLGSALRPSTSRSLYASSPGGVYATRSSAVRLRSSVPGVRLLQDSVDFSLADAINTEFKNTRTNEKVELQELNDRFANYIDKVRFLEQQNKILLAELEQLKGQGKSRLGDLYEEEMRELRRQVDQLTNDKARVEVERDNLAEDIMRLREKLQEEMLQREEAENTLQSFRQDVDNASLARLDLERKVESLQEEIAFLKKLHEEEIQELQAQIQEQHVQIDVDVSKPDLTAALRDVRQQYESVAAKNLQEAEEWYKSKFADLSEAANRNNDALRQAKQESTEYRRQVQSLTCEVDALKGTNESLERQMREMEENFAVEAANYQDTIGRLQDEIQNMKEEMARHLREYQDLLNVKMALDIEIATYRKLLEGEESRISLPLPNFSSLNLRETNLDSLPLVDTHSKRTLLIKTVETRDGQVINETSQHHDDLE

Cowpea mosaic virus nanoparticles (complex)
percent of cells positive for CPMV uptake [1]: 17% | percent of cells positive for CPMV uptake [2]: 38%
